From patent US20260274985A1 (MYTHIC THERAPEUTICS, published 2026) come the findings set out here.

Assay [1] has as its target T1, Human TROP2 Protein, His Tag (Acro Biosystems) (human, UniProt P09758 27-274).
T1 construct: not shown: His tag
T1 sequence (looked up): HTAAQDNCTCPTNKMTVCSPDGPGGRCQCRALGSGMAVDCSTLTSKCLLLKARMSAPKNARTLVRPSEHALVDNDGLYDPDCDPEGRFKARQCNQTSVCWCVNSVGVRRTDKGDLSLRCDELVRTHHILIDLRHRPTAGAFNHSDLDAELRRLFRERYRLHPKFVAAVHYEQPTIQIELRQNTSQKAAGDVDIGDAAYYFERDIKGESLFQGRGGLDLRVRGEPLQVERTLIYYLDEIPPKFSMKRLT
The experiment in a line: Octet (BLI); antigen and pH not given.

Assay [2] concerns the target T2, Human TROP2 Protein, His Tag (Acro Biosystems) (human, UniProt P09758 27-274).
T2 construct: Bought antigen used at 50 nM in the Octet screen; also called TACSTD2; not shown: His tag
T2 sequence (looked up): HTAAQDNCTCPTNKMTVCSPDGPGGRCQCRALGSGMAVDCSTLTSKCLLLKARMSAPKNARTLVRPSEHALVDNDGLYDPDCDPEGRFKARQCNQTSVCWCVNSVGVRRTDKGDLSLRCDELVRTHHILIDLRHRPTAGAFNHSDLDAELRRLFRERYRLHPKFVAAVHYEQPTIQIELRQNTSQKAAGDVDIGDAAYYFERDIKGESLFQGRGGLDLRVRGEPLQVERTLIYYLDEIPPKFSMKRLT
The experiment in a line: BLI (Octet) [1/2]. As for the experimental part:
After allowing for four days of protein expression, cell culture supernatants were collected, quantified by SDS-PAGE analysis (DNS), and the pH dependence of the variant was evaluated using biolayer interferometry (BLI) on an Octet RED 96e instrument. Briefly, cell culture supernatants were diluted based on qualitative expression level of the variant determined by visual examination of SDS-PAGE gels, 5 μL of cell culture supernatant was diluted into 195 μL of 1×PBST, pH 7.4 for high expressors, 25 μL of cell culture supernatant was diluted into 175 μL of 1×PBST, pH 7.4 for medium expressors and 100 μL of cell culture supernatant was diluted into 100 μL of 1×PBST, pH 7.4 for low expressors for loading onto the sensor tips. The resulting diluted supernatants were then captured on an anti-human Fc sensor (Forte Bio). A baseline was established using 1×PBST (50 mM Potassium Phosphate Buffer+150 mM NaCl+0.05% Tween 20) pH 7.4, and the sensor was associated with 50 nM of TROP2 (Human TROP2 Protein, His Tag, Acro Biosystems) in 1×PBST pH 7.4 for 120 sec to generate an association curve. In the dissociation phase, the antibody-antigen complex on the sensor was exposed to 1×PBST pH 7.4 or pH 5.4, for 300 sec. Association and dissociation phase curves were examined for the starting ABPC antibody (with no substitutions) and each corresponding antibody variant at pH 5.4 and pH 7.4 to inform on two criteria: a) enhanced dissociation (i.e., higher koff values) at pH 5.4 due to histidine or alanine substitution compared to the starting ABPC, (with no substitutions), and b) reduced dissociation at pH 7.4 (i.e., lower koff values) compared to pH 5.4 in the antibody variant itself and with the starting ABPC (with no substitutions). […] It was also noted that while some mutations obliterated TROP2 binding, others were tolerated with little or n change in TROP2 binding kinetics.

B1: MYT11690 (antibody, V domains shown)
VH: QVQLVQSGAEVKKPGASVKVSCKASGYTFTTAGMQWVRQAPGQGLEWMGWINTHSGVPKYAEDFKGRVTISADTSTSTAYLQLSSLKSEDTAVYYCARSGFGSSYWYFDVWGQGTLVTVSS
VL: DIQMTQSPSSLSASVGDRVTITCKASQDVSTAVAWYQQKPGKAPKLLIYSAHYRYTGVPSRFSGSGSGTDFTLTISSLQPEDFAVYYCQQHYITPLTFGQGTKLEIK
notes: IgG; also called Datopotamab LC variant
B1: in assay [1], the dissociation constant (Kd) is 3.4 nM and the “Octet response at 33.33 nM (Y-Axis) nm” value was determined as 0.0911 nm.

B2: MYT13426 (antibody, V domains shown)
VH: QVQLQQSGSELKKPGASVKVSCKASGYTFTNYGMNWVKQAPGQGLKWMGWINTYTGEPTYTDHFKGRFAFSLDTSVSTAYLQISSLKADDTAVYFCARGGFGSSYWYFDVWGQGSLVTVSS
VL: DIQLTQSPSSLSASVGDRVSITCKASQDVHIAVAWYQQKPGKAPKLLIYSHSYRYTGVPDRFSGSGSGTDFTLTISSLQPEDFAVYYCQQHYHTPLTFGAGTKVEIK
notes: IgG; also called Sacituzumab HC-LC pairing variant
For B2, in assay [1], the equilibrium dissociation constant (Kd) is 1.51 nM and the “Octet response at 33.33 nM (Y-Axis) nm” value was 0.132 nm.

B3: MYT13429 (antibody, V domains shown)
VH: QVQLQQSGSELKKPGASVKVSCKASGYTFTNYGMNWVKQAPGQGLKWMGWINTYTGEPTYTDDFKHRFAFSLDTSVSTAYLQISSLKADDTAVYFCARGGFGSSYWYFDVWGQGSLVTVSS
VL: DIQLTQSPSSLSASVGDRVSITCKASQDVHIAVAWYQQKPGKAPKLLIYSHSYRYTGVPDRFSGSGSGTDFTLTISSLQPEDFAVYYCQQHYHTPLTFGAGTKVEIK
notes: as for B2
For B3, in assay [1], the Kd came out at 2.85 nM and the “Octet response at 33.33 nM (Y-Axis) nm” value stood at 0.122 nm.

B4: MYT13424 (antibody, V domains shown)
VH: QVQLQQSGSELKKPGASVKVSCKASGYTFTNYGMNWVKQAPGQGLKWMGWINTYTGEPTHTDDFKGRFAFSLDTSVSTAYLQISSLKADDTAVYFCARGGFGSSYWYFDVWGQGSLVTVSS
VL: DIQLTQSPSSLSASVGDRVSITCKASQDVHIAVAWYQQKPGKAPKLLIYSHSYRYTGVPDRFSGSGSGTDFTLTISSLQPEDFAVYYCQQHYHTPLTFGAGTKVEIK
notes: as for B2
With B4, in assay [1], binding was characterised by a dissociation constant (Kd) of 1.97 nM and the “Octet response at 33.33 nM (Y-Axis) nm” value was 0.123 nm.

B5: MYT13265 (antibody, V domains shown)
VH: QVQLVQSGAEVKKPGASVKVSCKASGYTFTTAGMQWVRQAPGQGLEWMGWINTHSGVPKYAEDFKGRVTISADTSTSTAYLQLSSLKSEDTAVYYCAHSGFGSSYWYFDVWGQGTLVTVSS
VL: DIQMTQSPSSLSASVGDRVTITCKASQDVSTAVAWYQQKPGKAPKLLIYSASHRYTGVPSRFSGSGSGTDFTLTISSLQPEDFAVYYCQQHYITPLTFGQGTKLEIK
notes: Full-length IgG; also called Datopotamab HC-LC pairing variant
As for B5, in assay [1], the dissociation constant (Kd) was determined as 9.5 nM and the “Octet response at 33.33 nM (Y-Axis) nm” value was 0.0712 nm.

B6: MYT13368 (antibody, V domains shown)
VH: QVQLQQSGSELKKPGASVKVSCKASGYTFTNYGMNWVKQAPGQGLKWMGWINTYTGEPTHTDDFKGRFAFSLDTSVSTAYLQISSLKADDTAVYFCARGGFGSSYWYFDVWGQGSLVTVSS
VL: DIQLTQSPSSLSASVGDRVSITCKASQDVHIAHAWYQQKPGKAPKLLIYSASYRYTGVPDRFSGSGSGTDFTLTISSLQPEDFAVYYCQQHYITPLTFGAGTKVEIK
notes: as for B2
For B6, in assay [1], the Kd was found to be 1.03 nM and the “Octet response at 33.33 nM (Y-Axis) nm” value was 0.14 nm.

B7: MYT13160 (antibody, V domains shown)
VH: QVQLQQSGSELKKPGASVKVSCKASGYTFTNHGMNWVKQAPGQGLKWMGWINTYTGEPTYTDDFKGRFAFSLDTSVSTAYLQISSLKADDTAVYFCARGGFGSSYWYFDVWGQGSLVTVSS
VL: DIQLTQSPSSLSASVGDRVSITCKASQDVHIAVAWYQQKPGKAPKLLIYSASYRYTGVPDRFSGSGSGTDFTLTISSLQPEDFAVYYCQQHYITPLTFGAGTKVEIK
notes: as for B2
With B7, in assay [1], the Kd is 0.009 nM and the “Octet response at 33.33 nM (Y-Axis) nm” value is 0.077 nm.

B8: MYT13433 (antibody, V domains shown)
VH: QVQLQQSGSELKKPGASVKVSCKASGYTFTNYGMNWVKQAPGQGLKWMGWINTYTGEPTYTHDFKGRFAFSLDTSVSTAYLQISSLKADDTAVYFCARGGFGSSYWYFDVWGQGSLVTVSS
VL: DIQLTQSPSSLSASVGDRVSITCKASQDVSIAVAWYQQKPGKAPKLLIYSHSHRYTGVPDRFSGSGSGTDFTLTISSLQPEDFAVYYCQQHYHTPLTFGAGTKVEIK
notes: as for B2
On to B8, for which, in assay [1], the Kd is 4.36 nM and the “Octet response at 33.33 nM (Y-Axis) nm” value stood at 0.12 nm.

B9: MYT11691 (antibody, V domains shown)
VH: QVQLVQSGAEVKKPGASVKVSCKASGYTFTTAGMQWVRQAPGQGLEWMGWINTHSGVPKYAEDFKGRVTISADTSTSTAYLQLSSLKSEDTAVYYCARSGFGSSYWYFDVWGQGTLVTVSS
VL: DIQMTQSPSSLSASVGDRVTITCKASQDVSTAVAWYQQKPGKAPKLLIYSASHRYTGVPSRFSGSGSGTDFTLTISSLQPEDFAVYYCQQHYITPLTFGQGTKLEIK
notes: as for B1
As for B9, in assay [1], the Kd came to 6.03 nM and the “Octet response at 33.33 nM (Y-Axis) nm” value came out at 0.0719 nm.

B10: MYT11751 (antibody, V domains shown)
VH: QVQLQESGPGLVKPSETLSLTCTVSGGSISSYGVHWIRQPPGKGLEWIGVIWTSGVTDYNSALMGRVTISVDTSKNQFSLKLSSVTAADTAVYYCARDGDYDRYTMDYWGQGTLVTVSS
VL: DIVMTQSPDSLAVSLGERATINCRASKSVSHSGYSYMHWYQQKPGQPPKLLIYLASNLESGVPDRFSGSGSGTDFTLTISSLQAEDVAVYYCQHSRELPYTFGQGTKLEIK
notes: hu7E6SVG variant, His at LCV position 31 (L1 08); screened as IgG in Expi293 supernatant
On to B10, for which, in assay [2], the binding result is recorded as “no binding (tested: 50 nM)”.

B11: MYT13290 (antibody, V domains shown)
VH: QVQLQESGPGLVKPSETLSLTCTVSGGSISSYGVHWIRQPPGKGLEWIGVIWTSGVTDYNSALMGRVTISVDTSKNQFSLKLSSVTAADTAVYYCARDGDYDRYTHDYWGQGTLVTVSS
VL: DIVMTQSPDSLAVSLGERATINCRASKSVSTSGYSYMHWYQQKPGQPPKLLIYLASNLESGVPDRFSGSGSGTDFTLTISSLQAEDVAVYYCHHSRELPYTFGQGTKLEIK
notes: Full-length IgG; also called h7E6SVG HC-LC pairing variant
B11: in assay [1], the dissociation constant (Kd) is 7.45 nM and the “Octet response at 33.33 nM (Y-Axis) nm” value stood at 0.103 nm.

B12: MYT11755 (antibody, V domains shown)
VH: QVQLQESGPGLVKPSETLSLTCTVSGGSISSYGVHWIRQPPGKGLEWIGVIWTSGVTDYNSALMGRVTISVDTSKNQFSLKLSSVTAADTAVYYCARDGDYDRYTMDYWGQGTLVTVSS
VL: DIVMTQSPDSLAVSLGERATINCRASKSVSTSGYHYMHWYQQKPGQPPKLLIYLASNLESGVPDRFSGSGSGTDFTLTISSLQAEDVAVYYCQHSRELPYTFGQGTKLEIK
notes: hu7E6SVG variant, His at LCV position 35 (L1 12); screened as IgG in Expi293 supernatant
In the case of B12, the binding result in assay [2] is reported as “binds”.

B13: MYT11753 (antibody, V domains shown)
VH: QVQLQESGPGLVKPSETLSLTCTVSGGSISSYGVHWIRQPPGKGLEWIGVIWTSGVTDYNSALMGRVTISVDTSKNQFSLKLSSVTAADTAVYYCARDGDYDRYTMDYWGQGTLVTVSS
VL: DIVMTQSPDSLAVSLGERATINCRASKSVSTSHYSYMHWYQQKPGQPPKLLIYLASNLESGVPDRFSGSGSGTDFTLTISSLQAEDVAVYYCQHSRELPYTFGQGTKLEIK
notes: hu7E6SVG variant, His at LCV position 33 (L1 10); screened as IgG in Expi293 supernatant
B13: the binding result in assay [2] is “binds”.

B14: MYT13283 (antibody, V domains shown)
VH: QVQLQESGPGLVKPSETLSLTCTVSGGSISSYGVHWIRQPPGKGLEWIGVIWTSGVTDYNSALMGRVTISVDTSKNQFSLKLSSVTAADTAVYYCARDGDYHRYTMDYWGQGTLVTVSS
VL: DIVMTQSPDSLAVSLGERATINCRASKSVSTSGYSYMHWYQQKPGQPPKLLIYLASNLEHGVPDRFSGSGSGTDFTLTISSLQAEDVAVYYCQHSRELPYTFGQGTKLEIK
notes: as for B11
For the molecule B14, in assay [1], the equilibrium dissociation constant (Kd) was 5.32 nM and the “Octet response at 33.33 nM (Y-Axis) nm” value was determined as 0.108 nm.

B15: MYT11754 (antibody, V domains shown)
VH: QVQLQESGPGLVKPSETLSLTCTVSGGSISSYGVHWIRQPPGKGLEWIGVIWTSGVTDYNSALMGRVTISVDTSKNQFSLKLSSVTAADTAVYYCARDGDYDRYTMDYWGQGTLVTVSS
VL: DIVMTQSPDSLAVSLGERATINCRASKSVSTSGHSYMHWYQQKPGQPPKLLIYLASNLESGVPDRFSGSGSGTDFTLTISSLQAEDVAVYYCQHSRELPYTFGQGTKLEIK
notes: hu7E6SVG variant, His at LCV position 34 (L1 11); screened as IgG in Expi293 supernatant
In the case of B15, the binding result in assay [2] is on record as “binds”.

B16: MYT11752 (antibody, V domains shown)
VH: QVQLQESGPGLVKPSETLSLTCTVSGGSISSYGVHWIRQPPGKGLEWIGVIWTSGVTDYNSALMGRVTISVDTSKNQFSLKLSSVTAADTAVYYCARDGDYDRYTMDYWGQGTLVTVSS
VL: DIVMTQSPDSLAVSLGERATINCRASKSVSTHGYSYMHWYQQKPGQPPKLLIYLASNLESGVPDRFSGSGSGTDFTLTISSLQAEDVAVYYCQHSRELPYTFGQGTKLEIK
notes: hu7E6SVG variant, His at LCV position 32 (L1 09); screened as IgG in Expi293 supernatant
Consider B16, for which the binding result in assay [2] is given as “binds”.
